The source of these data is patent publication US11505576B2, “Polypeptides based on a scaffold” (AFFIBODY AB, priority 2018, dated 2022).

The nature of data set [1]: Fraction of soluble product on expression in E. coli, estimated from SDS-PAGE. To be noted: MGSSHHHHHHGSS-[Y#####]-A; for Estimated soluble fraction: Table 7, Ylib002Naive.I selection; for Est soluble fraction: Table 9, mutation study 5. It is filed as physicochemical. Here is the method: E. coli T7E2 cells were transformed with plasmids containing the gene fragment of each respective Y variant. The resulting recombinant strains were generally cultivated in media supplemented with 50 μg/ml kanamycin at 30-37° C. in 50 ml scale using the EnPresso protocol (Enpresso GmbH). In order to induce protein expression, isopropyl-β-D-1-thiogalactopyranoside (IPTG) was added to a final concentration of 0.5 mM at an optical density at 600 nm (OD600) of approximately 10. After induction, the cultures were incubated for 16 h. The cells were harvested by centrifugation. Alternatively, the culture was performed at 37° C. in 980 ml of TSB-YE medium (tryptic soy broth 30 g/l supplemented with yeast extract 5 g/l) supplemented with 50 μg/ml kanamycin, and protein expression induced with 0.2 mM IPTG at OD600=2, followed by incubation for 5 h before harvesting of the cells by centrifugation. The total yield as well as the fraction of soluble and insoluble product of the respective Y variant was estimated based on SDS-PAGE analysis.

The nature of data set [2]: Circular dichroism spectroscopy analysis (CD spectra, variable temperature measurement, refolding). It is filed as physicochemical. As to conditions: MGSSHHHHHHGSS-[Y#####]-A. As for the experimental part:
The respective Y variant was diluted to 0.5 mg/ml in PBS. A CD spectrum at 250-195 nm was obtained at 20° C. In addition, a variable temperature measurement (VTM) was performed to determine the melting temperature (Tm). In the VTM, absorbance was measured at 221 nm while the temperature was raised from 20° C. to 90° C. with a temperature gradient of 5° C./min. A new CD spectrum was obtained at 20° C. after the heating procedure, in order to study the refolding ability of the Y variants. The CD measurements were performed on a Jasco J-810 spectropolarimeter (Jasco Scandinavia AB) using a cell with an optical path length of 1 mm.
(§1) Produced Y variants were subjected to CD and SPR analyses according to the methods described in Example 1.
(§2) The Y variants were cloned, produced and characterized according to the general methods described in Example 1. Produced Y variants with point mutations and/or N-terminal or C-terminal extensions were subjected to CD and SPR analyses as described in Example 1.
(§3) Produced Y variants were subjected to CD and SPR analyses according to the methods described in Example 1. In addition, CD spectra of selected IL-6 binding variants were also recorded at 60, 70, 80 and 90° C.
(§4) The Y variants were cloned, produced and characterized according to the general methods described in Example 1. Produced Y variants with point mutations were subjected to CD and SPR analyses as described in Example 1. In addition, CD spectra of the IL-6 binding variants were also recorded at 60, 70, 80 and 90° C.

In another data set the target is T1, insulin (Homo sapiens, UniProt P01308).
T1 construct: purchased Roche 1376497
T1 sequence (P01308 25-54 limits assumed): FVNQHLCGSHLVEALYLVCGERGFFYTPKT
T1 sequence (P01308 90-110 limits assumed): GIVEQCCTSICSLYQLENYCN
Nature of the data set: Kinetic analysis using surface plasmon resonance (Biacore T200), immobilized insulin. It is filed as binding. As to conditions: MGSSHHHHHHGSS-[Y#####]-A. Here is the method: Kinetic constants (ka and kd) and affinities (KD) were determined for His6-tagged Y variants using a Biacore T200 instrument (GE Healthcare). Target proteins C4, IL-6 and insulin, respectively, were immobilized in separate flow cells on the carboxylated dextran layer of different CM5 chip surfaces (GE Healthcare). Immobilization was performed using amine coupling chemistry according to the manufacturer's protocol and PBS pH 7.4 supplemented with 0.1 Tween20 (PBST 0.1%) as running buffer. The ligand immobilization levels on the surfaces were 3280-8830 RU for C4, 495-1184 RU for IL-6, and 270-282 RU for insulin. One flow cell surface on each chip was activated and deactivated for use as blank during analyte injections. In the kinetic experiment, PBST 0.1% was used as running buffer at a flow rate of 30 μl/min. The analytes, i.e. Y variants, were each diluted in PBST 0.1 buffer at concentrations of 1000, 500, 100, 50 and 10 nM and injected for 5 min, followed by dissociation in running buffer for 3 min. After dissociation, the surfaces were regenerated with one injection of 30 μl 10 mM HCl. Kinetic constants were calculated from the sensorgrams using the Langmuir 1:1 model of Biacore T200 Evaluation software 2.0 (GE Healthcare).
as §1, §2, §3, §4

For the substance “Y00301: insulin binding Y variant from Ylib002Naive.I, SEQ ID NO:133 (LAEAKEAAIAELDSKGVGARQIKWIQQAKSVEVVQWLKQAILADLPA; Engineered insulin binding Y variant)”, the Estimated soluble fraction in data set [1] is reported as 83%. Further, the Tm in data set [2] (Table 7) was 62 °C. In the data set with insulin (Table 7), the affinity, expressed as Kd, was 0.94 nM; the ka turned out to be 2.9e+07 M⁻¹ s⁻¹; the kd is 0.056 s⁻¹.

For “Y00304: insulin binding Y variant from Ylib002Naive.I, SEQ ID NO:134 (LAEAKEAAIAELDSKGVGAYQIKFIQVAHDVEEVQILKQAILADLPA; Engineered insulin binding Y variant)”, in data set [1], the Estimated soluble fraction was 33%. In addition, the Tm in data set [2] (Table 7) was determined as 41 °C. Further, in the data set with insulin (Table 7), the affinity, expressed as Kd, was 21 nM; the ka came out at 85000 M⁻¹ s⁻¹; the kd was determined as 0.0011 s⁻¹.

Turning to “Y00310: insulin binding Y variant from Ylib002Naive.I, SEQ ID NO:135 (LAEAKEAAIAELDSKGVGAYQIKFIQIAHTVEEVQLMKQAILADLPA; Engineered insulin binding Y variant)”, the Estimated soluble fraction in data set [1] is given as 86%. In data set [2] (Table 7), the Tm is 54 °C. In the data set with insulin (Table 7), this substance had a Kd of 37 nM, a ka of 170000 M⁻¹ s⁻¹ and a kd of 0.0063 s⁻¹.

Consider “Y00330: insulin binding Y variant from Ylib002Naive.I, SEQ ID NO:136 (LAEAKEAAIAELDSKGVGAKYIKMIQMAKHVETVQYMKQAILASLPA; Engineered insulin binding Y variant)”, for which the Estimated soluble fraction in data set [1] is reported as 67%. Besides, the Tm in data set [2] (Table 7) is 56 °C. In addition, in the data set with insulin (Table 7), binding was characterised by a dissociation constant (Kd) of 120 nM, the ka stood at 30000 M⁻¹ s⁻¹ and the kd amounted to 0.0037 s⁻¹.

“Y00345: insulin binding Y variant from Ylib002Naive.I, SEQ ID NO:138 (LAEAKEAAIAELDSKGVGAYQIKFIQVAKTVEAVQAIKQAILADLPA; Engineered insulin binding Y variant)”: the Estimated soluble fraction in data set [1] is recorded as 80%. Besides, in data set [2] (Table 7), the Tm came to 53 °C. In the data set with insulin (Table 7), this substance yielded a Kd of 61 nM, a ka of 290000 M⁻¹ s⁻¹ and a kd of 0.017 s⁻¹.

Take “Y00356a: insulin binding Y variant from Ylib002Naive.I, SEQ ID NO:141 (LAEAKEAAIAELDSKGVGAKYIKMIQHAHYVEVVQWLKQAILAHLPA; Engineered insulin binding Y variant)”: the Estimated soluble fraction in data set [1] was 60%. In addition, the Tm in data set [2] (Table 7) is 56 °C. In the data set with insulin (Table 7), this substance came in with a Kd of 0.17 nM, a ka of 3.4e+07 M⁻¹ s⁻¹ and a kd of 0.0061 s⁻¹.

Consider “Y00358: insulin binding Y variant from Ylib002Naive.I, SEQ ID NO:142 (LAEAKEAAIAELDSKGVGAAKIKWIQDAKSVETVQFLKQAILAELPA; Engineered insulin binding Y variant)”, for which the Estimated soluble fraction in data set [1] is listed as 97%. Also, in data set [2] (Table 7), the Tm amounted to 61 °C. In the data set with insulin (Table 7), this substance registered a Kd of 10 nM, a ka of 220000 M⁻¹ s⁻¹ and a kd of 0.0023 s⁻¹.

On to “Y00361: insulin binding Y variant from Ylib002Naive.I, SEQ ID NO:144 (LAEAKEAAIAELDSKGVGAKFIKMIQSAKLVETVQLLKQAILADLPA; Engineered insulin binding Y variant)”, for which the Estimated soluble fraction in data set [1] is on record as 100%. Besides, the Tm in data set [2] (Table 7) stood at 52 °C. Moreover, in the data set with insulin (Table 7), binding was put at a Kd of 310 nM, the ka stood at 12000 M⁻¹ s⁻¹ and the kd was found to be 0.0036 s⁻¹.

On to “Y02709: insulin binding Y variant, Y00358 with I9L, SEQ ID NO:149 (LAEAKEAALAELDSKGVGAAKIKWIQDAKSVETVQFLKQAILAELPA; Engineered insulin binding Y variant)”, for which the Est soluble fraction in data set [1] is on record as 100%. The Tm in data set [2] (Table 9, mutation study 5) came out at 54 °C. In the data set with insulin (Table 9, mutation study 5), this substance had a Kd of 380 nM, a ka of 27000 M⁻¹ s⁻¹ and a kd of 0.01 s⁻¹.

“Y02710: insulin binding Y variant, Y00358 with K15Y, SEQ ID NO:150 (LAEAKEAAIAELDSYGVGAAKIKWIQDAKSVETVQFLKQAILAELPA; Engineered insulin binding Y variant)”: the Est soluble fraction in data set [1] was 100%. Besides, the Tm in data set [2] (Table 9, mutation study 5) was 61 °C. Also, in the data set with insulin (Table 9, mutation study 5), the Kd came to 14 nM, the ka turned out to be 190000 M⁻¹ s⁻¹ and the kd turned out to be 0.0027 s⁻¹.

Regarding “Y02711: insulin binding Y variant, Y00358 with Q26E, SEQ ID NO:151 (LAEAKEAAIAELDSKGVGAAKIKWIEDAKSVETVQFLKQAILAELPA; Engineered insulin binding Y variant)”, the Est soluble fraction in data set [1] is given as 100%. For the same substance, the Tm in data set [2] (Table 9, mutation study 5) amounted to 62 °C. Further, in the data set with insulin (Table 9, mutation study 5), the Kd was 54 nM, the ka came to 1500 M⁻¹ s⁻¹ and the kd was 0.008 s⁻¹.

As to “Y02713: insulin binding Y variant, Y00310 with K15Y, SEQ ID NO:153 (LAEAKEAAIAELDSYGVGAYQIKFIQIAHTVEEVQLMKQAILADLPA; Engineered insulin binding Y variant)”, the Est soluble fraction in data set [1] is listed as 100%. In data set [2] (Table 9, mutation study 5), the Tm was 51 °C. In the data set with insulin (Table 9, mutation study 5), the Kd worked out at 190 nM, the ka turned out to be 110000 M⁻¹ s⁻¹ and the kd stood at 0.014 s⁻¹.

Take “Y02714: insulin binding Y variant, Y00310 with Q26E, SEQ ID NO:154 (LAEAKEAAIAELDSKGVGAYQIKFIEIAHTVEEVQLMKQAILADLPA; Engineered insulin binding Y variant)”: the Est soluble fraction in data set [1] is on record as 100%. For the same substance, in data set [2] (Table 9, mutation study 5), the Tm worked out at 53 °C. In the data set with insulin (Table 9, mutation study 5), the Kd came to 540 nM, the ka was found to be 290000 M⁻¹ s⁻¹ and the kd was found to be 0.16 s⁻¹.

As to “Y02715: insulin binding Y variant, Y00358 with K15Y Q26E, SEQ ID NO:155 (LAEAKEAAIAELDSYGVGAAKIKWIEDAKSVETVQFLKQAILAELPA; Engineered insulin binding Y variant)”, the Est soluble fraction in data set [1] was 100%. Further, in data set [2] (Table 9, mutation study 5), the Tm worked out at 61 °C. Besides, in the data set with insulin (Table 9, mutation study 5), the Kd was 280 nM, the ka was 6700 M⁻¹ s⁻¹ and the kd came to 0.0019 s⁻¹.

Consider “Y02716: insulin binding Y variant, Y00301 with K15Y Q26E, SEQ ID NO:156 (LAEAKEAAIAELDSYGVGARQIKWIEQAKSVEVVQWLKQAILADLPA; Engineered insulin binding Y variant)”, for which the Est soluble fraction in data set [1] was 100%. In data set [2] (Table 9, mutation study 5), the Tm amounted to 58 °C. In the data set with insulin (Table 9, mutation study 5), this substance gave a Kd of 7.6 nM, a ka of 2.7e+07 M⁻¹ s⁻¹ and a kd of 0.21 s⁻¹.

For the substance “Y02717: insulin binding Y variant, Y00310 with K15Y Q26E, SEQ ID NO:157 (LAEAKEAAIAELDSYGVGAYQIKFIEIAHTVEEVQLMKQAILADLPA; Engineered insulin binding Y variant)”, the Est soluble fraction in data set [1] is reported as 100%. For the same substance, the Tm in data set [2] (Table 9, mutation study 5) amounted to 52 °C. In addition, in the data set with insulin (Table 9, mutation study 5), the Kd came to 610 nM, the ka was 33000 M⁻¹ s⁻¹ and the kd worked out at 0.02 s⁻¹.
